Test [1] addresses human μ-opioid receptor (μOR), wild type, with HA signal sequence at the N terminus and LgBiT at the C terminus (modified pfastbac1) (human) (UniProt P35372). Description: split reporter (BiFC, NanoBiT); NanoBiT on Sf9 membranes co-expressing μOR-LgBiT, Gαi1, Gβ1-SmBiT and Gγ2, in PBS pH 7.4; dose-response of FD-3, 15 min at room temperature, luminescence; normalized to DAMGO.
Test [2] shares this target. Description: split reporter (BiFC, NanoBiT); NanoBiT on Sf9 membranes co-expressing μOR-LgBiT, Gαi1, Gβ1-SmBiT and Gγ2, in PBS pH 7.4; dose-response of fentanyl, 15 min at room temperature, luminescence; normalized to DAMGO.

Gi protein complex (Gαi1, Gβ1 with SmBiT at the C terminus, Gγ2), sequence (P63096 whole entry): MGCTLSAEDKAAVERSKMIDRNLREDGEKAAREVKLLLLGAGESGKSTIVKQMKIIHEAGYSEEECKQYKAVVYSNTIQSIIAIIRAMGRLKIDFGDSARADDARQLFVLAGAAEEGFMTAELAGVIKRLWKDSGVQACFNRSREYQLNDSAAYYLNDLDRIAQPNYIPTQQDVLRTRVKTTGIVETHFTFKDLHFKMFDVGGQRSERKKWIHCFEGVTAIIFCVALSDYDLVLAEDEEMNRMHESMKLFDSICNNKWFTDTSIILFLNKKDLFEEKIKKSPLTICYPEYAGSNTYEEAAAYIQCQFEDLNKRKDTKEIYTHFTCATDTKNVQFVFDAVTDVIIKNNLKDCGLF
Gi protein complex (Gαi1, Gβ1 with SmBiT at the C terminus, Gγ2), sequence (P62873 whole entry): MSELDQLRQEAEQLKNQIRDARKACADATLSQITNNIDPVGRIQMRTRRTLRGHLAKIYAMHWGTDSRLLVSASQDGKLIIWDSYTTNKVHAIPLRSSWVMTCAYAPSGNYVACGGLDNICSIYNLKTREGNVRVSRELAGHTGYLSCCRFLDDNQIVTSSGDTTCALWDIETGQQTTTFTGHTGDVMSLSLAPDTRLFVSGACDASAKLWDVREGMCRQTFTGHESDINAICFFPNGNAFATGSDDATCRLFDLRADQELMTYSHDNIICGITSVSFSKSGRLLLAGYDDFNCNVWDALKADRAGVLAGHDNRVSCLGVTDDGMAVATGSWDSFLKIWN
Gi protein complex (Gαi1, Gβ1 with SmBiT at the C terminus, Gγ2), sequence (P59768 whole entry): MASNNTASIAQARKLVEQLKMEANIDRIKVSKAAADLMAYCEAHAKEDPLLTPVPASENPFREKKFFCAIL

Turning to “Gi protein complex (Gαi1, Gβ1 with SmBiT at the C terminus, Gγ2) (from UniProt P63096 1-354; P62873 1-340; P59768 1-71)”, the maximal coupling efficiency relative to morphine in test [1] stood at 67%. Besides, in test [2], the maximal Gi coupling (normalized to DAMGO) was > 55%.

The record behind these values is article PMC7176292.
